For 167 variants, self-cleavage results are on record in the RNAGym collection of RNA variant scans (doi:10.7554/elife.90254).

B1: LINE1-full (parent)
chain: UACGUAGGUGGUUUUCCCCUGAUAGUGCUAAGGGGGCCUGGAAGUUUGGACUGGGCAGAGCUCAACACAGCGUGGCAAAGUGGCUGUGGCUAGACUGCCUCUCUGGAUUCCUCGUCACUCAGCAGGGCAUCUCUGAGAGAAAUGCC

The series covers variants of B1. As to the kind of experiment: self-cleavage, relative activity (ratio to wild type); higher = more cleavage; in vitro, sequencing; the parent is a self-cleaving ribozyme.
On to U104A C131U, for which the self-cleavage stood at 1.55. Under U102A G135A stands 1.47; under U104C G125A, 1.28. Regarding G105C U132C, the self-cleavage was 1.53. In the case of G106U A141G it was 0.83; in that of U102C U134A, 1.59; in that of U102C U134C, 1.55.

For the variant U102A C131U, the self-cleavage amounted to 1.26. On to U102G A140G, for which the self-cleavage turned out to be 0.39. Under U102C A124U stands 1.14; under U102C A124C, 2.04; under U104A C118U, 0.84. Take U102C A117C: the self-cleavage amounted to 2.63. For the variant U102C G126U, the self-cleavage amounted to 1.59. As for U102C G126A, the self-cleavage amounted to 1.65. Under G106U U134C stands 0.75; under U104C A141C, 1.73.

With U104C A141G, the self-cleavage was found to be 1.69. In the case of U102C A136U it was 1.8; in that of U102C A136C, 0.97; in that of U104C A140G, 1.67.

For U104C A140U, the self-cleavage came out at 1.25.

Take U102C U143A: the self-cleavage was 1.36. In the case of U104C G105U it was 1.66; in that of G105U U132C, 0; in that of U102C C131U, 0.87. On to U102C G122A, for which the self-cleavage stood at 1.66. Take G105U A107C: the self-cleavage was found to be 2.34. For G105U U115A, the self-cleavage was found to be 1.72.

Regarding U104A U109C, the self-cleavage was determined as 1.11. In the case of U104A U109A it was 0.42; in that of U102A U112C, 0.96. On to U104A G106A, for which the self-cleavage was found to be 0.84. Under G106A U132G stands 1.67. As to G106A U132A, the self-cleavage amounted to 0.61. In the case of U102C U115C it was 2.02; in that of U102C U115A, 1.51; in that of U104G C113U, 0.83. Take G105A A129C: the self-cleavage stood at 2.69.

For the variant U102C U132C, the self-cleavage was found to be 1.75. As for U102C A142G, the self-cleavage was 1.53.

For the variant U102C A142C, the self-cleavage was 1.73. Under U102C A142U stands 1.26. In the case of C103A A117G it was 1.49; in that of U102C U108A, 1.57. Under U102C U108C stands 1.15; under U104A A138G, 1.34. With U104A C123U, the self-cleavage came to 1.51.

As to G106A C128U, the self-cleavage worked out at 1.7. On to U104C U112G, for which the self-cleavage stood at 1.41.

With U104C U112A, the self-cleavage turned out to be 1.8.

Consider U102A U119C, for which the self-cleavage was determined as 2.01. Under G106A A141G stands 1.16; under C103U U130C, 0.84; under U104C C133U, 1.72. Under U104A C116U stands 0.9.

In the case of G105A, the self-cleavage worked out at 1.43.

On to G105C, for which the self-cleavage is 1.59. In the case of G105U it was 1.37; in that of U104C A124U, 1.76. Consider U104C A117G, for which the self-cleavage is 1.23.

Turning to G106A G127U, the self-cleavage was 1.49. In the case of U104C C116U it was 1.91; in that of U104A U115C, 1.42. Regarding U104A U115A, the self-cleavage is 1.13. Under U104C G144U stands 2.06.

As to C103U, the self-cleavage is 1.23. Turning to C103A, the self-cleavage came to 1.38. Regarding C103G, the self-cleavage was 1.25. For U102C G127A, the self-cleavage stood at 1.7.

In the case of U102C C145U, the self-cleavage is 1.93. Under U104A U119A stands 1.23. C103A A142G: the self-cleavage worked out at 1.41.

Take G106U U108C: the self-cleavage came to 1.32.

In the case of U104A A107U, the self-cleavage is 1.31. In the case of U104A C113A it was 0.91.

Turning to U104A C113U, the self-cleavage came to 0.51. In the case of U104A A136G it was 1.39; in that of U102A U130A, 1.28. As for U102A U130C, the self-cleavage stood at 1.89. In the case of U104C A142G it was 1.81; in that of U104C G126U, 1.59.

As to U102C A141G, the self-cleavage is 1.39.

Take U104C U109A: the self-cleavage came out at 0.65.

As to U104G A140G, the self-cleavage worked out at 0.73. U102C U104A: the self-cleavage came out at 1.52.

With U102C G105A, the self-cleavage came out at 2.14. Under G105A U108C stands 1.56. In the case of U104C G114A, the self-cleavage was 1.59. Take U104C C146U: the self-cleavage is 2.3.

With U102C C123U, the self-cleavage was 1.21. With U104A C120U, the self-cleavage worked out at 1.65. As for U102A C146U, the self-cleavage was 0.99.

As to U104C U108C, the self-cleavage is 2.07. Turning to G105U A117G, the self-cleavage stood at 1.74. In the case of U102C C133U it was 0.47.

As for G105U A136G, the self-cleavage worked out at 1.47. Under G105U U119C stands 1.92; under C103U A121G, 1.58. In the case of G106U A138G it was 0.99. U104A A140U: the self-cleavage was 1.03.

In the case of U102A U109C, the self-cleavage was determined as 1.31. Consider U102A U109A, for which the self-cleavage came out at 1.03. Under U104A U130A stands 0.89; under U102A C120U, 1.65. As for G105A A121U, the self-cleavage was 1.46. Under G105C A140G stands 1.83; under U102G, 0.71. In the case of U102C it was 1.29. Under G106A A124U stands 1.54; under G105A U130C, 0.96; under C103U U134C, 1.48. Regarding C103U G114C, the self-cleavage is 1.5. In the case of U104A U132C it was 1.08; in that of U104A U132A, 1.64; in that of U102A C145U, 1.04. On to G106U A117G, for which the self-cleavage was 1.22. Under G106A A121G stands 1.78; under U104A A141C, 0.47; under U104A A141G, 1.43. As for U104G U115A, the self-cleavage stood at 0.87. For the variant U102C A129G, the self-cleavage turned out to be 1.51.

U102C A121G: the self-cleavage stood at 1.06.

With U104C A136U, the self-cleavage was 1.91. Under U104A A121U stands 1.11; under U104G U130C, 0.75; under G106U U130C, 1.29. In the case of C103U A140U it was 1.72; in that of U104C G122A, 1.54; in that of C103U U115A, 1.72. As for C103U U115C, the self-cleavage came to 1.51.

Turning to U104A U143C, the self-cleavage worked out at 1.13. With U104C C113U, the self-cleavage was 1.8. In the case of U104C C113A it was 2.01. Under G106U U112C stands 0.82. For U102C U109C, the self-cleavage was 1.38. G106C: the self-cleavage was 1.37.

For G106A, the self-cleavage stood at 1.48. In the case of G106U it was 1.05; in that of U104C U115C, 1.92; in that of U104C U134C, 1.62. Turning to U104C U130G, the self-cleavage came to 1.5. In the case of U104A U108A it was 1; in that of C103A U143C, 1.1.

U104C U119C: the self-cleavage worked out at 1.96. Take U104C U119G: the self-cleavage is 0. Take U104C U119A: the self-cleavage was determined as 2.16.

With U102C A138U, the self-cleavage is 1.49. On to C103U A142C, for which the self-cleavage stood at 1.23. Under A107C A117U stands 2.03; under G106A U143C, 1.51.

Regarding G106A U134C, the self-cleavage amounted to 1.08. In the case of U104A A117G it was 1.67; in that of G105U U143A, 1.34; in that of U104C C120U, 1.45. In the case of G105A G114C it was 1.42. Regarding G105A G114A, the self-cleavage worked out at 0.75. In the case of U102C U130A it was 2.21. On to G105A A136G, for which the self-cleavage was found to be 1.28. As for G105A U109C, the self-cleavage turned out to be 1.46.

Take U102A U115A: the self-cleavage was found to be 1.43. In the case of G106U A136U it was 0.83; in that of U104A A129C, 1.61; in that of U102G G144U, 0.97. On to U102G U143A, for which the self-cleavage is 0.84. Under U104C U132C stands 1.63; under U104C A129C, 2.1.
